Results on eleven molecules are retold here after patent US8067220B2, “Alternative crystal form of monoacylglycerol lipase (MGLL)” (Janssen Pharmaceutica N.V., priority 2008, dated 2011).

One may read the Km as the substrate concentration at which the rate is half of its maximum.

In the series the test system is MGLL. Nature of the series: Michaelis-Menten kinetics, hydrolysis of 4-methylcoumarin butyrate (4MC-B). In kind it is biochemical, human. The following applies: substrate 4MC-B; 4-5 nM MGLL, 20 mM Pipes pH 7, 150 mM NaCl, 37° C.; average of 2 or 4 assays. From the text:
A small fluorescent substrate, 4-methyl coumarin butyrate (4MC-B) was used to compare the activity of the engineered mutants to the activity of wt-MGLL (hMGLL 1-303) (SEQ ID NO: 3). The catalytic efficiency (kcat/KM) for the hydrolysis of the 4MC-B was similar for wt-MGLL (hMGLL 1-303) (SEQ ID NO: 3) and all MGLL mutants tested (Table 2). A larger more aliphatic fluorescent substrate, Coumarin Arachidonate (C-A), structurally more closely related to the MGLL natural substrate, 2-AG, was used to compare the activity of wt-MGLL (hMGLL 1-303) (SEQ ID NO: 3) to TEV protease cleaved mut-MGLL (hMGLL 1-303 L169S, L176S) (SEQ ID NO: 5).
The Michaelis-Menten parameters for the hydrolysis of 4-methylcoumarin butyrate (4MC-B) and coumarin arachidonate (C-A) substrate were determined using 4-5 nM of MGLL in 20 mM Pipes pH 7 and 150 mM NaCl at 37° C. The change in fluorescence due to substrate hydrolysis was monitored using excitation/emission wavelengths of 335/440 in a Safire II instrument from Tecan. The hyperbolic rates versus substrate concentration curves for the hydrolysis of 4MC-B were fit to the Michaelis-Menten equation using Excel.

B1: mut-MGLL 1-303, L169S, L176S, K36A: human MGLL 1-303 with cap mutations L169S, L176S and surface mutation K36A (protein)
chain: GMPEESSPRRTPQSIPYQDLPHLVNADGQYLFCRYWAPTGTPKALIFVSHGAGEHSGRYEELARMLMGLDLLVFAHDHVGHGQSEGERMVVSDFHVFVRDVLQHVDSMQKDYPGLPVFLLGHSMGGAIAILTAAERPGHFAGMVLISPLVLANPESATTFKVLAAKVLNSVLPNLSSGPIDSSVLSRNKTEVDIYNSDPLICRAGLKVCFGIQLLNAVSRVERALPKLTVPFLLLQGSADRLCDSKGAYLLMELAKSQDKTLKIYEGAYHVLHKELPEVTNSVFHEINMWVSQRTATAGTASPP
B1: the Kcat came out at 0.85 s⁻¹ and the Km was 124 µM.

B2: mut-MGLL 9-297, L169S, L176S: truncated human MGLL 9-297 with L169S, L176S (protein, UniProt Q99685 9-297, looked up, variant L169S L176S)
chain: RTPQSIPYQDLPHLVNADGQYLFCRYWKPTGTPKALIFVSHGAGEHSGRYEELARMLMGLDLLVFAHDHVGHGQSEGERMVVSDFHVFVRDVLQHVDSMQKDYPGLPVFLLGHSMGGAIAILTAAERPGHFAGMVLISPLVLANPESATTFKVLAAKVLNSVLPNLSSGPIDSSVLSRNKTEVDIYNSDPLICRAGLKVCFGIQLLNAVSRVERALPKLTVPFLLLQGSADRLCDSKGAYLLMELAKSQDKTLKIYEGAYHVLHKELPEVTNSVFHEINMWVSQRTATA
With B2, the Kcat is 0.433 s⁻¹ and the Km was determined as 126 µM.

B3: mut-MGLL 1-303, L171Q: human MGLL 1-303 with cap-domain mutation L171Q (protein, UniProt Q99685 1-303, looked up, variant L171Q)
Monoglyceride lipase: MPEESSPRRTPQSIPYQDLPHLVNADGQYLFCRYWKPTGTPKALIFVSHGAGEHSGRYEELARMLMGLDLLVFAHDHVGHGQSEGERMVVSDFHVFVRDVLQHVDSMQKDYPGLPVFLLGHSMGGAIAILTAAERPGHFAGMVLISPLVLANPESATTFKVLAAKVLNLVQPNLSLGPIDSSVLSRNKTEVDIYNSDPLICRAGLKVCFGIQLLNAVSRVERALPKLTVPFLLLQGSADRLCDSKGAYLLMELAKSQDKTLKIYEGAYHVLHKELPEVTNSVFHEINMWVSQRTATAGTASPP
With B3, the Kcat was 0.85 s⁻¹ and the Km came to 105 µM.

B4: mut-MGLL. 1-303, L167Q, L174Q: human MGLL 1-303 with cap-domain mutations L167Q, L174Q (protein, UniProt Q99685 1-303, looked up, variant L167Q L174Q)
Monoglyceride lipase: MPEESSPRRTPQSIPYQDLPHLVNADGQYLFCRYWKPTGTPKALIFVSHGAGEHSGRYEELARMLMGLDLLVFAHDHVGHGQSEGERMVVSDFHVFVRDVLQHVDSMQKDYPGLPVFLLGHSMGGAIAILTAAERPGHFAGMVLISPLVLANPESATTFKVLAAKVQNLVLPNQSLGPIDSSVLSRNKTEVDIYNSDPLICRAGLKVCFGIQLLNAVSRVERALPKLTVPFLLLQGSADRLCDSKGAYLLMELAKSQDKTLKIYEGAYHVLHKELPEVTNSVFHEINMWVSQRTATAGTASPP
Take B4: the Kcat is 1.17 s⁻¹ and the Km amounted to 84 µM.

B5: mut-MGLL 1-303, L171Q, L174Q: human MGLL 1-303 with cap-domain mutations L171Q, L174Q (protein, UniProt Q99685 1-303, looked up, variant L171Q L174Q)
Monoglyceride lipase: MPEESSPRRTPQSIPYQDLPHLVNADGQYLFCRYWKPTGTPKALIFVSHGAGEHSGRYEELARMLMGLDLLVFAHDHVGHGQSEGERMVVSDFHVFVRDVLQHVDSMQKDYPGLPVFLLGHSMGGAIAILTAAERPGHFAGMVLISPLVLANPESATTFKVLAAKVLNLVQPNQSLGPIDSSVLSRNKTEVDIYNSDPLICRAGLKVCFGIQLLNAVSRVERALPKLTVPFLLLQGSADRLCDSKGAYLLMELAKSQDKTLKIYEGAYHVLHKELPEVTNSVFHEINMWVSQRTATAGTASPP
Turning to B5, the Kcat came to 0.783 s⁻¹ and the Km came out at 89 µM.

B6: mut-MGLL 1-303, L169S, L176S, K226A: human MGLL 1-303 with L169S, L176S and surface mutation K226A (protein)
chain: MPEESSPRRTPQSIPYQDLPHLVNADGQYLFCRYWKPTGTPKALIFVSHGAGEHSGRYEELARMLMGLDLLVFAHDHVGHGQSEGERMVVSDFHVFVRDVLQHVDSMQKDYPGLPVFLLGHSMGGAIAILTAAERPGHFAGMVLISPLVLANPESATTFKVLAAKVLNSVLPNLSSGPIDSSVLSRNKTEVDIYNSDPLICRAGLKVCFGIQLLNAVSRVERALPALTVPFLLLQGSADRLCDSKGAYLLMELAKSQDKTLKIYEGAYHVLHKELPEVTNSVFHEINMWVSQRTATAGTASPP
B6: the Kcat came out at 0.633 s⁻¹ and the Km amounted to 110 µM.

B7: mut-MGLL 1-303, L169S, L176S, K36A, K226A: human MGLL 1-303 with L169S, L176S and surface mutations K36A, K226A (protein)
chain: MPEESSPRRTPQSIPYQDLPHLVNADGQYLFCRYWAPTGTPKALIFVSHGAGEHSGRYEELARMLMGLDLLVFAHDHVGHGQSEGERMVVSDFHVFVRDVLQHVDSMQKDYPGLPVFLLGHSMGGAIAILTAAERPGHFAGMVLISPLVLANPESATTFKVLAAKVLNSVLPNLSSGPIDSSVLSRNKTEVDIYNSDPLICRAGLKVCFGIQLLNAVSRVERALPALTVPFLLLQGSADRLCDSKGAYLLMELAKSQDKTLKIYEGAYHVLHKELPEVTNSVFHEINMWVSQRTATAGTASPP
Regarding B7, the Kcat was 0.5 s⁻¹ and the Michaelis constant (Km) amounted to 123 µM.

B8: mut-MGLL.1-303, L169S, L176S, K160A: human MGLL 1-303 with L169S, L176S and surface mutation K160A (protein)
chain: MPEESSPRRTPQSIPYQDLPHLVNADGQYLFCRYWKPTGTPKALIFVSHGAGEHSGRYEELARMLMGLDLLVFAHDHVGHGQSEGERMVVSDFHVFVRDVLQHVDSMQKDYPGLPVFLLGHSMGGAIAILTAAERPGHFAGMVLISPLVLANPESATTFAVLAAKVLNSVLPNLSSGPIDSSVLSRNKTEVDIYNSDPLICRAGLKVCFGIQLLNAVSRVERALPKLTVPFLLLQGSADRLCDSKGAYLLMELAKSQDKTLKIYEGAYHVLHKELPEVTNSVFHEINMWVSQRTATAGTASPP
Turning to B8, the Kcat stood at 0.5 s⁻¹ and the Km is 90 µM.

B9: mut-MGLL 1-303, L167Q, L171Q: human MGLL 1-303 with cap-domain mutations L167Q, L171Q (protein, UniProt Q99685 1-303, looked up, variant L167Q L171Q)
Monoglyceride lipase: MPEESSPRRTPQSIPYQDLPHLVNADGQYLFCRYWKPTGTPKALIFVSHGAGEHSGRYEELARMLMGLDLLVFAHDHVGHGQSEGERMVVSDFHVFVRDVLQHVDSMQKDYPGLPVFLLGHSMGGAIAILTAAERPGHFAGMVLISPLVLANPESATTFKVLAAKVQNLVQPNLSLGPIDSSVLSRNKTEVDIYNSDPLICRAGLKVCFGIQLLNAVSRVERALPKLTVPFLLLQGSADRLCDSKGAYLLMELAKSQDKTLKIYEGAYHVLHKELPEVTNSVFHEINMWVSQRTATAGTASPP
Turning to B9, the Kcat came to 0.983 s⁻¹ and the Km turned out to be 84 µM.

B10: mut-MGLL.1-303, L169S, L176S, K165A: human MGLL 1-303 with L169S, L176S and surface mutation K165A (protein)
chain: MPEESSPRRTPQSIPYQDLPHLVNADGQYLFCRYWKPTGTPKALIFVSHGAGEHSGRYEELARMLMGLDLLVFAHDHVGHGQSEGERMVVSDFHVFVRDVLQHVDSMQKDYPGLPVFLLGHSMGGAIAILTAAERPGHFAGMVLISPLVLANPESATTFKVLAAAVLNSVLPNLSSGPIDSSVLSRNKTEVDIYNSDPLICRAGLKVCFGIQLLNAVSRVERALPKLTVPFLLLQGSADRLCDSKGAYLLMELAKSQDKTLKIYEGAYHVLHKELPEVTNSVFHEINMWVSQRTATAGTASPP
With B10, the Kcat was found to be 0.45 s⁻¹ and the Km is 137 µM.

B11: mut-MGLL 9-303, L169S, L176S: N-terminally truncated human MGLL 9-303 with L169S, L176S (protein, UniProt Q99685 9-303, looked up, variant L169S L176S)
chain: RTPQSIPYQDLPHLVNADGQYLFCRYWKPTGTPKALIFVSHGAGEHSGRYEELARMLMGLDLLVFAHDHVGHGQSEGERMVVSDFHVFVRDVLQHVDSMQKDYPGLPVFLLGHSMGGAIAILTAAERPGHFAGMVLISPLVLANPESATTFKVLAAKVLNSVLPNLSSGPIDSSVLSRNKTEVDIYNSDPLICRAGLKVCFGIQLLNAVSRVERALPKLTVPFLLLQGSADRLCDSKGAYLLMELAKSQDKTLKIYEGAYHVLHKELPEVTNSVFHEINMWVSQRTATAGTASPP
On to B11, for which the Kcat came out at 0.45 s⁻¹ and the Michaelis constant (Km) came out at 88 µM.
